The values that follow come from patent US20090258363, “Targeted integration and expression of exogenous nucleic acid sequences” (Sangamo BioSciences, Inc., published 2009).

Targets include sca-36a ZFP-FokI (synthetic); sca-36b ZFP-FokI (synthetic); sca-36c ZFP-FokI (synthetic); sca-r29b ZFP-FokI (synthetic).
Common to all, as to test: ZFP domain; assay not described
Conditions in all cases: tags: FokI C-terminal, 4-aa linker

sca-r29b ZFP-FokI (synthetic), sequence (chain, as listed by the source): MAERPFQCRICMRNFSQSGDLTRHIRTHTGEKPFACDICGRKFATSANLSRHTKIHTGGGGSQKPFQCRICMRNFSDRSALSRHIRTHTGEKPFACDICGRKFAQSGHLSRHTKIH
sca-36a ZFP-FokI (synthetic), sequence (chain, as listed by the source): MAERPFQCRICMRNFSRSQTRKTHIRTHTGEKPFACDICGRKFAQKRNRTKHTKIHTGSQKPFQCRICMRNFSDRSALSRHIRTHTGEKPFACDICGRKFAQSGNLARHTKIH
sca-36b ZFP-FokI (synthetic), sequence (chain, as listed by the source): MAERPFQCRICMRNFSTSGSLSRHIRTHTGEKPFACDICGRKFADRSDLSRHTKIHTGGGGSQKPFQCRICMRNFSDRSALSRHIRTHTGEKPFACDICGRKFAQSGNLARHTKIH
sca-36c ZFP-FokI (synthetic), sequence (chain, as listed by the source): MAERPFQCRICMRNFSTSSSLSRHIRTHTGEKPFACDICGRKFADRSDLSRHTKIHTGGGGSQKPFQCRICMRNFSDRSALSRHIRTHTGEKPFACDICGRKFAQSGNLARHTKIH

B1: sca-36a site (dsDNA)
DNA 1: GAAGTCTGCCGT
DNA 2: ACGGCAGACTTC
Consider B1, for which, in the series with sca-36a ZFP-FokI, the binding result is listed as “binds”.

B2: sca-36b site (dsDNA)
DNA 1: GAAGTCTGCCGTT
DNA 2: AACGGCAGACTTC
In the case of B2, the binding result in the series with sca-36b ZFP-FokI is “binds”.

B3: sca-36c site (dsDNA)
DNA 1: GAAGTCTGCCGTT
DNA 2: AACGGCAGACTTC
Turning to B3, the binding result in the series with sca-36c ZFP-FokI is “binds”.

B4: sca-r29b site (dsDNA)
DNA 1: ACGTAGACTGAGG
DNA 2: CCTCAGTCTACGT
As for B4, the binding result in the series with sca-r29b ZFP-FokI is “binds”.
